Measurements reported in patent US20240166695A1, “PEPTIDIC POSITIVE ALLOSTERIC MODULATORS TARGETING TRPV1” (priority 2021, published 2024).
Residue numbers refer to the chain shown, from its start.

B1: De4: design on scaffold 2HDZ used as negative control because it cannot refold well, SEQ ID NO: 38 (protein)
chain: LPESPRFAQKIWQQSVIGDYLARFKNDRVKALKAMEDSSNNSSMHRFAEFFAKAFEDLHRYLEEL
B2: De1: designed 93-residue protein binder to TRPV1 ARD, scaffold 1QZM, SEQ ID NO: 8 (protein)
chain: NGYSSEDKLRIAKRHLLPKQIERNALKKGELFVSEFAILGIILFYTDEAGVRGLEREISKLCRKAVKQLLLDKSTTSSHASGFHLHDYLGVMR
B3: De2: optimized version of De1, 93 residues, scaffold 1QZM, SEQ ID NO: 37 (protein)
chain: B2 chain with S4W, L9E, F32K, S34W, L39F, D47W, S77R, H79W

What was measured:
[1] = molecular target: T1, TRPV1 (UniProt Q704Y3); assay: Whole-cell patch-clamp recordings of capsaicin activation, desensitization and tachyphylaxis; format: cell-based; details: design co-expressed with TRPV1; for acute current desensitization upon capsaicin activation: extracellular calcium present
T1 construct: other: TRPV1 alone; absence of extracellular calcium; other: design co-expressed with TRPV1; extracellular calcium p; repeated caps; fused on or other part: Possibly YFP at the C-terminus
Experimental: Patch-clamp recordings were performed with a HEKA EPC10 amplifier controlled by PatchMaster software (HEKA). Whole-cell recordings at ±80 mV were used to test whether an ANAP-incorporated channel was functional. Patch pipettes were prepared from borosilicate glass and fire-polished to resistance of ˜4 MΩ. For whole-cell recording, serial resistance was compensated by 60%. A solution with […], 10 mM glucose, 0.2 mM EDTA and 3 mM HEPES (pH 7.2) was used in both bath and pipette for concentration response curve measurements in TRPV1, TRPV2 and TRPV3. To measure calcium-dependent ligand-induced desensitization and tachyphylaxis, 2 mM CaCl2 was added to the solution. Membrane potential was clamped at ±80 mV. Current was sampled at 10 kHz and filtered at 2.9 kHz. All recordings were performed at room temperature (22° C.) with the maximum variation of 1° C.
Ligands were perfused to membrane patch by a gravity-driven system (RSC-200, Bio-Logic). Bath and ligand solution were delivered through separate tubes to minimize the mixing of solutions. Patch pipette was placed in front of the perfusion tube outlet.

[2] = system: TRPV1 channel; assay: FRET imaging of TRPV1-YFP and design-CFP co-expressed in HEK293 cells; format: binding; details: for FRET signal between design-CFP and TRPV1-YFP: co-expressed in cells; for FRET efficiency: spectraFRET, design-CFP and TRPV1-YFP; for FRET ratio max: HEK293 cells
Description: Any design candidate can be assessed for the ability to bind TRPV1 using techniques including, but not limited to, the FRET protocols and SPR protocols described herein. For example, complementary fluorescent proteins (including, but not limited to, GFP CFP, YFP, and the like) may be fused recombinantly to a designed peptide and to TRPV1 for assessment of TRPV1 binding via FRET. In some non-limiting embodiments, binding of a candidate modulator to TRPV1 can be confirmed by observing a FRET ratio max of at least 1.25 when YFP is fused to the C-terminus of TRPV1, CFP is fused to the C-termini of a candidate peptide. In some embodiments, binding of a candidate modulator to TRPV1 can be confirmed by observing a FRET efficiency greater than about 4% (e.g., at least 5%, or at least 7%) when YFP is fused to the C-terminus of TRPV1, CFP is fused to the C-termini of a candidate peptide. FRET measurements can be made by co-expressing the FRET-labeled constructs in host cells, exciting the CFP construct in the host cells at 458 inn, and observing YFP emission at 530 nm. CFP emission can be separated from YFP emission by fitting of standard spectra acquired from cells expressing YFP or CFP only.
FRET efficiency is defined in its usual definition; it is inversely related to the sixth power of the distance between complementary fluorescent proteins on the binding partners. FRET efficiency is quantified from measurements of the fluorescence emission spectra, using the established method.
FRET ratios can be calculated from the increase in YFP emission due to energy transfer as described previously (Qiu, et al. J. Biol. Chem. 2005, 280, 24923, incorporated herein by reference in its entirety). CFP emission can be separated from YFP emission by fitting of standard spectra acquired from cells expressing only YFP or CFP. The fraction of YFP-tagged molecules that are associated with CFP-tagged molecules, Ab, is calculated as Ab=1/(1+KD/[Dfree]), where KD is the dissociation constant and [Dfree] is the concentration of free donor molecules. The FRET Ratio=1+Ab*(FRET Ratiomax−1). Regression analysis can be used to estimate Ab in individual cells. From each cell, the FRET ratioexp is experimentally determined. The predicted Ab value is then computed by adjusting two parameters, FRET Ratiomax, and apparent KD Ab was in turn used to give a predicted FRET ratiopredicted. By minimizing the squared errors (FRET ratioexp. FRET ratiopredicted)^2, KD was determined.
Apparent FRET efficiency can be calculated from the enhancement of YFP acceptor fluorescence emission due to energy transfer from the CFP donor using previously described methods. [see, e.g., Yang and Zheng, et al. Proc. Natl. Acad. Sci. U.S.A. 2010, 107 7083, which is incorporated herein by reference]. RatioA0, and RatioA1, are measured to calculate FRET efficiency. RatioA0, represents the ratio between acceptor emission intensities (in the absence of the donor) upon excitation at the donor and acceptor excitation wavelengths, and can be calculated at the YFP peak emission wavelength. A particular advantage of quantifying RatioA0 for FRET measurement is that changes in fluorescence intensity caused by many experimental factors cap be cancelled out by the ratiometric measurement:
To experimentally test whether our designed proteins work as PAM of TRPV1, we first tested whether they could interact with TRPV1 channel in live cells. We genetically fused YFP and CFP to the C termini of TRPV1 and our designs, respectively.
For spectroscopic imaging in FRET experiments, the imaging system was built upon a Nikon TE2000-U microscope. The excitation light was generated by an Ar laser. The duration of light exposure was controlled by a computer-driven mechanical shutter (Uniblitz). A spectrograph (Acton SpectraPro 2150i) was used in conjunction with a CCD camera (Roper Cascade 128B). […]

[3] = molecular target: T2, ARD of TRPV1 (Rattus norvegicus, UniProt O35433); assay: Surface plasmon resonance, ARD immobilized on CM5 sensor chip; format: binding; details: protein boiled to disrupt three-dimensional structure
T2 construct: made in house; host or cells: E. coli BL21 (DE3), pET-32a
T2 sequence (O35433 with tags, fused parts or gaps): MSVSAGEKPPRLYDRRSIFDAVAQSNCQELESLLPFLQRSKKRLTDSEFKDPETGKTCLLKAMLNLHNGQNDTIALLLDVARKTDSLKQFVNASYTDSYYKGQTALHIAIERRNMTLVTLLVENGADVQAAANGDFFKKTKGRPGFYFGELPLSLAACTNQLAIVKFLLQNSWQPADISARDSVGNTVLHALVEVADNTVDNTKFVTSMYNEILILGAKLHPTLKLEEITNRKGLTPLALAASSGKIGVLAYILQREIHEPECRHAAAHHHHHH
Description: To further quantify the binding affinity of the designs to the ARD, we expressed and purified both designed proteins and the ARD in E. coli. The DNA sequence of each designed protein and the ARD of TRPV1 (see their primary protein sequences in Table 6) was synthesized and inserted into the pET-32a plasmid after codon optimization for protein expression in bacteria E. coli BL21 (DE3) was transformed with the recombinant plasmids. A single colony was inoculated into media containing ampicillin; cultures were incubated in 37° C. at 200 rpm. Once cell density reached to OD 0.8-1.0 at 600 inn, IPTG was introduced for induction. SDS-PAGE was used to monitor the expression. […] The protein expression was stopped by centrifugation at 8000 rpm for 30 min. We collected cells and resuspended in resuspension solution containing 50 mM Tris-HCl, 150 mM NaCl, 10% glycerol and protease inhibitor (pH 7.4). The cells were lysed by sonication. The supernatant after centrifugation was kept for future purifications. Taget proteins were obtained by Ni column, and then further purified by the reversed phase HPLC on a Jupiter C4 column (10×250 mm, Phenomenex, Torrance, CA, USA). […]
We then quantified the binding of De1 and De3 to the ARD protein fixed on the sensor chip by surface plasma resonance (SPR) (FIGS. 6A and 6B). […] Steady-state SPR responses were measured and used to determine the KD values. […]

[4] = system: TRPV1; assay: Calcium imaging (Fluo-4) of capsaicin activation in transfected HEK293 cells; format: cell-based; details: 0.5 nM capsaicin; design co-expressed with TRPV1
Experimental: We then investigated whether, upon binding of the designed proteins, TRPV1 activation was positively modulated. […] Probenecid (2 mM) was included in all solutions to prevent Fluo-4 leakage from cells. At the end of incubation, cells were washed three times with ECS and incubated in the same solution for another 20 min at room temperature to complete the intracellular hydrolysis process of the AM ester, which converts the non-fluorescent Fluo-4/AM into the fluorescent version Fluo-4.
Coverslip with dye-loaded cells was placed in the quick-release magnetic chamber (Warner) and mounted on the stage of a Nikon Eclipse TE2000-U microscope system equipped with a Roper Cascade 128B CCD camera. Fluo-4 was excited by an Argon laser with a filter set of Z488/10 (excitation), z488rdc (dichroic) and recorded through an emission filter HQ5001p (all from Chroma). The duration of light exposure was controlled by a computer-driven mechanical shutter (Uniblitz). Cell images were acquired sequentially with an exposure period of 200 ms at an interval of 1 s. The shutter and the camera were controlled and synchronized by MetaMorph software (Universal Imaging).

[5] = system: TRPV1 channel; assay: Airyscan super resolution imaging of TRPV1-YFP and De1-CFP in HEK293 cells; format: cell-based; details: co-transfected HEK293 cells
Experimental: Super-resolution fluorescence microscopy was performed with the Zeiss LSM 880 fluorescence microscope with Airyscan. YFP fused to TRPV1 and CFP fused to the designed proteins were excited by laser line at 488 nm and 458 nm, respectively. We used a 60× oil-immersion objective (NA 1.42) in these experiments. Fluorescence imaging was performed with the default settings for CFP and YFP channels in the microscope controlled by the Zeiss ZEN software. Overlay of YFP- and CFP-channel images was also done in ZEN.

Molecule | acute current desensitization upon capsaicin activation [1] | FRET signal between design-CFP and TRPV1-YFP [2] | FRET efficiency [2] | capsaicin induced tachyphylaxis ([1]; repeated capsaicin application) | binding with the ARD after boiling of the protein [3] | activation of TRPV1 by low capsaicin concentration when co-expressed with design [4] | FRET ratio max [2] | co-localization with TRPV1 on cell membrane [5]
B1 | no such an effect was observed | no FRET occurred | 3.8% |  |  |  |  | 
B2 | significantly slowed down | positive FRET signals |  | capsaicin induced tachyphylaxis was reduced | completely abolished | sufficient to activate TRPV1 channels | 3.86 | clear co-localization
B3 | no such an effect was observed | positive FRET signals | 7.4% |  |  |  | 2.35 | 
